One experiment has as its target T1, human FAP (Homo sapiens, UniProt Q12884).
T1 sequence (Q12884 1-760): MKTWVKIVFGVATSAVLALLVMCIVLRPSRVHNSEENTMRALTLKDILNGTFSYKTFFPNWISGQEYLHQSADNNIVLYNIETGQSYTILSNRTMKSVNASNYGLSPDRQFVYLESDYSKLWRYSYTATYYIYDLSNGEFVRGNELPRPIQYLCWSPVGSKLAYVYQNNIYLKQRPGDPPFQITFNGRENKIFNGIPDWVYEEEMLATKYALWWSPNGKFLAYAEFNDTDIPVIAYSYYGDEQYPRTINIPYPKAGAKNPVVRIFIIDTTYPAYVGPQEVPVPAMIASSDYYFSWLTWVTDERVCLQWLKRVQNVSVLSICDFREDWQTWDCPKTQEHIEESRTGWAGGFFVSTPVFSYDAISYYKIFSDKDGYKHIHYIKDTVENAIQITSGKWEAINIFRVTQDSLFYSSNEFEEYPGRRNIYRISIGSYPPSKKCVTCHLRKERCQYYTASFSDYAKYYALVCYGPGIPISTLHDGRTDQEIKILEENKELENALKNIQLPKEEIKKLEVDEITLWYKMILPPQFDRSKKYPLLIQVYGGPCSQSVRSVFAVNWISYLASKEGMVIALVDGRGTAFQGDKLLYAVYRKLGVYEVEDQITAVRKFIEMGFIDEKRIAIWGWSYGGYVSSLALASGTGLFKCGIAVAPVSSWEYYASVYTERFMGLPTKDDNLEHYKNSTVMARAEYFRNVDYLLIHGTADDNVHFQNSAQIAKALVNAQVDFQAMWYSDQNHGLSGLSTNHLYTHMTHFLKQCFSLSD
The experiment is described as follows: BLI click reaction with Tz-R3B23 on TCO-VHHs bound to target, span (Example 7, Table 18). The settings on record: signal difference vs assay buffer. On the procedure: Next, Octet Streptavidin (SA) Biosensors were coated with 5 μg/mL biotinylated human FAP in assay buffer (HBS+0.5% BSA+0.1% Tween20) for 5 minutes. The sensors were then dipped in wells containing a 5 nM solution of the different VHHs (both TCO conjugated and unconjugated as control) for 20 minutes (association step) and further transferred to the assay buffer (dissociation step) for 30 minutes. After the dissociation phase, that simulates the lag time, the sensors were transferred to either a well containing 50 nM of a tetrazine-coupled, non-FAP binding R3B23 (Tz-R3B23) or to a well containing assay buffer as a control. This reaction was allowed to proceed for 20 minutes (experiment 1) or 30 minutes (experiment 2) after which the sensors were washed for 30 minutes in assay buffer. In the second experiment the TCO-VHHs were measured in duplicate (referred to as assay 1 and 2 of ‘experiment 2’ in the table below). Using the epitope binning function of ‘Octet Analysis Software’ we then determined the difference in signal between the VHHs incubated with Tz-R3B23 and the VHHs incubated with assay buffer. […] The span of unconjugated VHHs was considered as noise.

Experiment [1] addresses T2, human fibroblast activation protein (FAP) (human, UniProt Q12884 26-760).
T2 construct: also called human FAP; hFAP
T2 sequence: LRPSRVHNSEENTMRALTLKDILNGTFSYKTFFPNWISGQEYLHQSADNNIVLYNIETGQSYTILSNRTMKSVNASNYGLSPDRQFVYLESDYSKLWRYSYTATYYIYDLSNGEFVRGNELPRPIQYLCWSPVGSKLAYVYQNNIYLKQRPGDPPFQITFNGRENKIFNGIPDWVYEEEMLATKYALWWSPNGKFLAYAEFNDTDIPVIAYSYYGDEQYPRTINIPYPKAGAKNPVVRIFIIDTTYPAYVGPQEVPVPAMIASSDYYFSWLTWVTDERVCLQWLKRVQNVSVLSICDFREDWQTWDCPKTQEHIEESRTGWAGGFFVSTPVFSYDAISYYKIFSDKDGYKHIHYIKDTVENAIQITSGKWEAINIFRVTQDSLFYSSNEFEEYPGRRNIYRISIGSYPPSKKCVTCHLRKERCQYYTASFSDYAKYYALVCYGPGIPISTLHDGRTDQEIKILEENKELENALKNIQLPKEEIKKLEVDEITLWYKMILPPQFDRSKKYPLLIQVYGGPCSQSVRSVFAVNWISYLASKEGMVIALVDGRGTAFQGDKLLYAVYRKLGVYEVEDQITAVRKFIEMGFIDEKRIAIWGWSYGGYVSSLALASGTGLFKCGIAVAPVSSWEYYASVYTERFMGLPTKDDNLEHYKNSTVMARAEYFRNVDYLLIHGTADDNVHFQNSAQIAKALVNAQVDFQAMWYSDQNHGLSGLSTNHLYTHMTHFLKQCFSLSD
Put plainly: BLI (Octet), kinetics to human FAP, post TCO conjugation. On the procedure: Using the BLI technology on Octet system the binding kinetics towards human FAP were determined for each of the five VHHs pre- and post-TCO conjugation.

In experiment [2] the target is T3, human folate receptor alpha (FOLR1) (human, UniProt P15328 25-234, limits assumed).
T3 construct: also called hFOLR1; human FOLR1
Put plainly: SPR (Biacore), kinetics to hFOLR1, pre TCO conjugation.

Experiment [3] has as its target T4, hFOLR1 (Homo sapiens, UniProt P15328). Put plainly: SPR (Biacore) binding kinetics before and after TCO conjugation (Example 8, Table 19). The source says:
Using Surface Plasmon Resonance (Biacore) we determined the binding kinetics of the unconjugated and TCO-conjugated VHH (TCO-VHH) for the respective target as described earlier for VHH2 and VHH8 (EP3718574A1).

The target of experiment [4] is T4, hFOLR1. Put plainly: SPR click reaction with Tz-R3B23, span of relative response (Example 8, Table 20). The following applies: Biacore. On the procedure: Next, the click reaction was verified using SPR. 5 μg/mL recombinant hHER2 in 10 mM NaOAc pH 4.5 or 5 μg/mL recombinant hFOLR1 in 10 mM NaOAc pH 5.5 was immobilized on a Biacore Sensor Chip CM5 to a target level of 740 Response Units (RU) and 250 RU, respectively. […] For the VHH7 binding FOLR1 a VHH concentration of 5 nM was used, and the association and dissociation phases took 450 s and 900 s, respectively. […] As a negative control for the click reaction, we injected assay buffer (HBS) instead of the Tz-R3B23 over the flow cell. Using the Biacore evaluation software we determined the difference between the relative response before and after the click reaction with either the Tz-R3B23 or the negative control assay buffer. This difference is further on referred to as span.
A general note: SPR reads the build-up and loss of mass on a sensor chip optically.

Experiment [5] has as its target T3, human folate receptor alpha (FOLR1). Put plainly: SPR (Biacore), kinetics to hFOLR1, post TCO conjugation.

T4 sequence (P15328 25-234): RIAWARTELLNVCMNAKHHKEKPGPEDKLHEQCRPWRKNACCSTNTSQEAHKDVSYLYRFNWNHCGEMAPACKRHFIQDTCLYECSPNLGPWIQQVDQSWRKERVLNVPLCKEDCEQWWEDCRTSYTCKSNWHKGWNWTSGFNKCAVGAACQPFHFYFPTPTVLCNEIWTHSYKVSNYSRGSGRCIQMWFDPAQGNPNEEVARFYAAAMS
T3 sequence (P15328 25-234 limits assumed): as the sequence (P15328 25-234) above

B1: TCO-VHH6 (VHH)
VHH: DVQLVESGGGLVQAGGSLRLSCAVSGSISSANSMGWYRQAPGKQRDVVAGLTTGGRSHYADSVKGRFTISRDNAKNTVYLQMNSLKAEDTAVYYCNLWPPVQGYWGQGTQVTVSS
modifications: trans-cyclooctene (TCO) conjugated via TCO-NHS; site(s) and number not stated
notes: also called TCO conjugated VHH6; VHH6 post conjugation
As usually defined, the Kd is the free concentration of one partner at which half of the binding sites on the other are occupied at equilibrium, for simple one-to-one binding. As a reminder, the koff is the first-order rate constant of dissociation. As a reminder, the kon is the rate constant with which the complex forms. Turning to B1, the Span in the experiment with human FAP (Experiment 1, click reaction with 50 nM Tz-R3B23 for 20 minutes) stood at 0.0230. In the experiment with human FAP (Experiment 2, 1st assay, click reaction with 50 nM Tz-R3B23 for 30 minutes), the Span worked out at 0.0287. For the same molecule, in the experiment with human FAP (Experiment 2, 2nd assay, click reaction with 50 nM Tz-R3B23 for 30 minutes), the Span came out at 0.0229. Besides, in experiment [1], the Kd amounted to 0.147 nM, the koff came out at 0.000157 s⁻¹ and the kon stood at 1.07e+06 M⁻¹ s⁻¹.

B2: VHH2 (VHH)
VHH: DVQLVESGGGLVQPGGSLRLSCAASESIFSRNHMSWYRQAPGKQRELAAIITSDGNTNYPDSVKGRFTISRDNAKNTVYLQMNSLKPEDTAVYYCNTFGRSVAGFYDYWGQGTQVTVSS
notes: Anti-FOLR1 VHH, tested before TCO conjugation; also called VHH VHH2; unconjugated VHH2
In the case of B2, in experiment [2], the Kd came to 0.047 nM, the koff stood at 0.000167 s⁻¹ and the kon was found to be 3.54e+06 M⁻¹ s⁻¹.

B3: VHH2: VHH, target FOLR1, SEQ ID NO 21 (protein)
VHH: DVQLVESGGGLVQPGGSLRLSCAASESIFSRNHMSWYRQAPGKQRELAAIITSDGNTNYPDSVKGRFTISRDNAKNTVYLQMNSLKPEDTAVYYCNTFGRSVAGFYDYWGQGTQVTVSS
modifications: Full length sequence of VHH2
Regarding B3, in the experiment with hFOLR1 [3], the “binding kinetics after TCO conjugation” value was “barely affected”. In addition, the figures for the koff in the experiment with hFOLR1 [3] (Post conjugation (TCO)) and with hFOLR1 [3] (Pre conjugation) were 0.000192 s⁻¹ and 0.000167 s⁻¹, respectively. Besides, the kon in the experiment with hFOLR1 [3] (Post conjugation (TCO)) stood at 2.61e+06 M⁻¹ s⁻¹; in the experiment with hFOLR1 [3] (Pre conjugation) it was 3.54e+06 M⁻¹ s⁻¹. Further, the “Span of the Relative Response” value with hFOLR1 [4] (TCO-VHH bound on hFOLR1, Tz-R3B23 at 100 times molar excess) was found to be 12.3 RU; with hFOLR1 [4] (Unconjugated VHH bound on hFOLR1, Tz-R3B23 at 100 times molar excess), 0.6 RU.

B4: TCO-VHH2 (VHH)
VHH: DVQLVESGGGLVQPGGSLRLSCAASESIFSRNHMSWYRQAPGKQRELAAIITSDGNTNYPDSVKGRFTISRDNAKNTVYLQMNSLKPEDTAVYYCNTFGRSVAGFYDYWGQGTQVTVSS
modifications: trans-cyclooctene (TCO) conjugated via NHS-TCO; site(s) and number not stated
notes: also called TCO-conjugated VHH2; VHH2 post conjugation
In experiment [5], B4 displayed a Kd of 0.0734 nM, a koff of 0.000192 s⁻¹ and a kon of 2.61e+06 M⁻¹ s⁻¹.
